Data reported in article PMC9482650, “Quantitative fragmentomics allow affinity mapping of interactomes” (Nature Communications, 2022).

T1: DFNB31_3, Q9P202
T1 sequence (Q9P202 811-907, limits assumed, looked up): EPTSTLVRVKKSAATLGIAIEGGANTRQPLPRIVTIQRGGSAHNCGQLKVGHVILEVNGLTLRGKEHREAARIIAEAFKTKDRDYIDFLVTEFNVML

T2: DVL3, Q92997
T2 sequence (Q92997 244-331, limits assumed, looked up): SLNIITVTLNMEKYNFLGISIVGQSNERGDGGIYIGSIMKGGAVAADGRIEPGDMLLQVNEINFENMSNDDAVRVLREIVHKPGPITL

T3: GRIP1_2, Q9Y3R0
T3 sequence (Q9Y3R0 145-248, limits assumed, looked up): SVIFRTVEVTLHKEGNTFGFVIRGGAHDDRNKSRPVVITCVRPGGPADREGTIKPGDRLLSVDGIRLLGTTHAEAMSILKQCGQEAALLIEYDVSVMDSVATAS

T4: GRIP1_3, Q9Y3R0
T4 sequence (Q9Y3R0 247-346, limits assumed, looked up): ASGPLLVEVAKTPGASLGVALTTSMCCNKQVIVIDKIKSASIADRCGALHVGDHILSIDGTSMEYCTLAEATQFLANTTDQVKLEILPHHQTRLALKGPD

T5: GRIP1_5, Q9Y3R0
T5 sequence (Q9Y3R0 568-668, limits assumed, looked up): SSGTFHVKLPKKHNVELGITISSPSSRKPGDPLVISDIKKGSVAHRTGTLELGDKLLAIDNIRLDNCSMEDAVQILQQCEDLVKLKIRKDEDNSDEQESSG

T6: LIN7A, O14910
T6 sequence (O14910 103-200, limits assumed, looked up): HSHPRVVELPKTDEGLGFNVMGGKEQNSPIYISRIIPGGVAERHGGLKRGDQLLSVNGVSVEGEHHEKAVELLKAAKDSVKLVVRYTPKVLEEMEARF

T7: PDZRN3_1, Q9UPQ7
T7 sequence (Q9UPQ7 244-349, limits assumed, looked up): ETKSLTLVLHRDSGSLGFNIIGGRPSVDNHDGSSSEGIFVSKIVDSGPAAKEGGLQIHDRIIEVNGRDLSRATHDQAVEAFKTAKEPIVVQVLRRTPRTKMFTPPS

T8: RADIL, Q96JH8
T8 sequence (Q96JH8 971-1071, limits assumed, looked up): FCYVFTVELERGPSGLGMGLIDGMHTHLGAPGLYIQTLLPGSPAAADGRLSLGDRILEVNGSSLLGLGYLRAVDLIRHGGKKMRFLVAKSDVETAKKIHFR

T9: RAPGEF6, Q8TEU7
T9 sequence (Q8TEU7 525-625, limits assumed, looked up): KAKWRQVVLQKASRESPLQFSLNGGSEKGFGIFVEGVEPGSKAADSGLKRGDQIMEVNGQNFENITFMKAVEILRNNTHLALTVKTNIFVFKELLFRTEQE

T10: RHPN1, Q8TCX5
T10 sequence (Q8TCX5 508-602, limits assumed, looked up): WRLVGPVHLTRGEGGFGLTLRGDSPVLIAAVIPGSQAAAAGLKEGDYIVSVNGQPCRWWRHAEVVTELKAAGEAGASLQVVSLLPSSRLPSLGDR


Assays:
Assay in all cases: holdup assay
Set-up in all cases: key: below the threshold = too weak to quantify, mostly under pKd 3.1 to 4
Details in all cases: plain residues with an end cap or a label only (N-terminal biotin on a linker: ado-ado)
[1] = molecular target: T1, DFNB31_3, Q9P202
[2] = molecular target: DLG4_2, P78352
[3] = molecular target: DLG4_3, P78352
[4] = molecular target: T2, DVL3, Q92997
[5] = molecular target: GIPC2, Q8TF65
[6] = molecular target: GORASP1, Q9BQQ3
[7] = molecular target: GORASP2, Q9H8Y8
[8] = molecular target: T3, GRIP1_2, Q9Y3R0
[9] = molecular target: T4, GRIP1_3, Q9Y3R0
[10] = molecular target: T5, GRIP1_5, Q9Y3R0
[11] = molecular target: HTRA1, Q92743
[12] = molecular target: Inadl_10, Q8NI35
[13] = molecular target: T6, LIN7A, O14910
[14] = molecular target: LNX1_1, Q8TBB1
[15] = molecular target: LNX1_3, Q8TBB1
[16] = molecular target: MAGI1_1, Q96QZ7
[17] = molecular target: MAST2, Q6P0Q8
[18] = molecular target: NHERF4_2, Q86UT5
[19] = molecular target: NHERF4_4, Q86UT5
[20] = molecular target: PDLIM1, O00151
[21] = molecular target: T7, PDZRN3_1, Q9UPQ7
[22] = molecular target: PDZRN4_1, Q6ZMN7
[23] = molecular target: T8, RADIL, Q96JH8
[24] = molecular target: T9, RAPGEF6, Q8TEU7
[25] = molecular target: T10, RHPN1, Q8TCX5
[26] = molecular target: SCRIB_1, Q14160
[27] = molecular target: TJP2_1, Q9UDY2
TJP2_1, Q9UDY2, sequence (Q9UDY2 24-128): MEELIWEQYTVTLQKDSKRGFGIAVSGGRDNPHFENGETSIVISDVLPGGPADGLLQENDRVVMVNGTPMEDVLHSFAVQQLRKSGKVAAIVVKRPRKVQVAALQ

DLG4_2, P78352, sequence (P78352 155-259): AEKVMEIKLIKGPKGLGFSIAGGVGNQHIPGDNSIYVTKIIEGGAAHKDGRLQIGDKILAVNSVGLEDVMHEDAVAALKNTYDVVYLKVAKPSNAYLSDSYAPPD
Inadl_10, Q8NI35, sequence (Q8NI35 1673-1763): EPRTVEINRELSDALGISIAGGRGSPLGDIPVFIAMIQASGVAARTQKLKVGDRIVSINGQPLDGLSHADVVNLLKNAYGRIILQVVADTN
MAGI1_1, Q96QZ7, sequence (Q96QZ7 1-106): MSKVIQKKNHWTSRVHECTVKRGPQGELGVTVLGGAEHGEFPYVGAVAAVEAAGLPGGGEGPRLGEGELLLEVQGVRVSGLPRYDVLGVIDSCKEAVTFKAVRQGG
GORASP1, Q9BQQ3, sequence (Q9BQQ3 1-208): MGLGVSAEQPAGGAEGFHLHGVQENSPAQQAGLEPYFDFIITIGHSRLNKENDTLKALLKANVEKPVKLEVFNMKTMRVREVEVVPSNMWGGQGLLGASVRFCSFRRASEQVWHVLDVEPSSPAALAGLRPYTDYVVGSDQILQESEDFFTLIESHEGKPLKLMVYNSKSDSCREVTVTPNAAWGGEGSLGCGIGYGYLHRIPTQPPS
LNX1_3, Q8TBB1, sequence (Q8TBB1 500-596): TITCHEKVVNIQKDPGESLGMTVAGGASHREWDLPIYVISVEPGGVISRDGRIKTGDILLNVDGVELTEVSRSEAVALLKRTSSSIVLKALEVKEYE
NHERF4_2, Q86UT5, sequence (Q86UT5 220-308): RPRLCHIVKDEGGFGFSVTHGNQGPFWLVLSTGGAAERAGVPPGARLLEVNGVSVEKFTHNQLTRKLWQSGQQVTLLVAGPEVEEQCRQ
HTRA1, Q92743, sequence (Q92743 360-477): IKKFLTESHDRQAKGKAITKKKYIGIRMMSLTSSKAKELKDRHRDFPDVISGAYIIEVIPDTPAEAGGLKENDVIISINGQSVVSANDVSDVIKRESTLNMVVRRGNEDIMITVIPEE
DLG4_3, P78352, sequence (P78352 306-403): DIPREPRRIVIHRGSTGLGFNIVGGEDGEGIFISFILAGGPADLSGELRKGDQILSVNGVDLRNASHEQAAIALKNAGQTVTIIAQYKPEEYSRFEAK
GIPC2, Q8TF65, sequence (Q8TF65 112-203): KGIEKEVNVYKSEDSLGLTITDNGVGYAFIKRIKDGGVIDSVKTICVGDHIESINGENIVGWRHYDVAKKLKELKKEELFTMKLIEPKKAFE
NHERF4_4, Q86UT5, sequence (Q86UT5 464-550): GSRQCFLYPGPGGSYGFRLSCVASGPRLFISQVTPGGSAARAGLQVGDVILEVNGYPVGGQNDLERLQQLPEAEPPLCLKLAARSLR
PDZRN4_1, Q6ZMN7, sequence (Q6ZMN7 213-318): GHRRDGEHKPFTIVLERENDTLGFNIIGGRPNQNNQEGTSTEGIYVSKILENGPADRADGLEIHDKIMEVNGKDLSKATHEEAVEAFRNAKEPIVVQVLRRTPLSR
MAST2, Q6P0Q8, sequence (Q6P0Q8 1099-1202): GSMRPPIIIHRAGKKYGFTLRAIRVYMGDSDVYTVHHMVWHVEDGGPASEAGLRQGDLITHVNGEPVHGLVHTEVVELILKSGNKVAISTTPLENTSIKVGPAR
LNX1_1, Q8TBB1, sequence (Q8TBB1 261-371): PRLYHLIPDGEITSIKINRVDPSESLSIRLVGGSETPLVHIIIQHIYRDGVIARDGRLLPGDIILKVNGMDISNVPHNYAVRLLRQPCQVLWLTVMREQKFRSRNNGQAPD
SCRIB_1, Q14160, sequence (Q14160 718-814): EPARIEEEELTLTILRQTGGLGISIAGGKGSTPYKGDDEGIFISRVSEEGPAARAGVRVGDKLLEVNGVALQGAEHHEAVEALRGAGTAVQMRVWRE
PDLIM1, O00151, sequence (O00151 1-87): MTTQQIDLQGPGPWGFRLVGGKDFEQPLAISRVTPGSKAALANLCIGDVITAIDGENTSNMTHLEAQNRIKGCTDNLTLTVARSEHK

pKd [1]	pKd [2]	pKd [3]	pKd [4]	pKd [5]	pKd [6]	pKd [7]	pKd [8]	pKd [9]	pKd [10]	pKd [11]	pKd [12]	pKd [13]	pKd [14]	pKd [15]	pKd [16]	pKd [17]	pKd [18]	pKd [19]	pKd [20]	other results	Binder
below the threshold	below the threshold	below the threshold	below the threshold	below the threshold	below the threshold	3.67	below the threshold	below the threshold	below the threshold	3.94	below the threshold	below the threshold	below the threshold	below the threshold	3.55	3.84	below the threshold	below the threshold	below the threshold	pKd [21]: below the threshold; pKd [22]: below the threshold; pKd [23]: 4; pKd [24]: below the threshold; pKd [25]: below the threshold; pKd [26]: below the threshold; pKd [27]: 3.71	PAPSSGKDYV [CLDN1, O95832]
below the threshold	below the threshold	below the threshold	below the threshold	below the threshold	below the threshold	below the threshold	below the threshold	below the threshold	below the threshold	below the threshold	below the threshold	below the threshold	below the threshold	below the threshold	below the threshold	below the threshold	below the threshold	below the threshold	below the threshold	pKd [21]: below the threshold; pKd [22]: below the threshold; pKd [23]: below the threshold; pKd [24]: below the threshold; pKd [25]: below the threshold; pKd [26]: below the threshold; pKd [27]: below the threshold	NHSSSPETTA [TRMT13, Q9NUP7]
below the threshold	4.4	4.2	3.59	4.32	3.54	3.51	3.59	3.49	below the threshold	4.16	below the threshold	4.15	4.19	below the threshold	3.63	5.5	below the threshold	below the threshold	3.6	pKd [21]: 4.91; pKd [22]: 4.98; pKd [23]: 3.81; pKd [24]: 3.64; pKd [25]: 4.68; pKd [26]: 4.54; pKd [27]: below the threshold	EVEEFPETSV [TRPV3, Q8NET8]
below the threshold	below the threshold	below the threshold	below the threshold	below the threshold	4.48	4.87	below the threshold	below the threshold	below the threshold	4.62	below the threshold	below the threshold	below the threshold	below the threshold	below the threshold	below the threshold	below the threshold	below the threshold	below the threshold	pKd [21]: below the threshold; pKd [22]: below the threshold; pKd [23]: 5.24; pKd [24]: below the threshold; pKd [25]: below the threshold; pKd [26]: below the threshold; pKd [27]: below the threshold	VYPNAKVELV [PDLIM4_iso2, P50479;P50479-1]
